Source: publication PMC2408616, “Modular Organization and Combinatorial Energetics of Proline–Tyrosine Nuclear Localization Signals” (PLoS Biology, 2008)

Target: T1, Kap104p (yeast (S. cerevisiae), UniProt P38217 1-918)
T1 construct: Kap104p, yeast homolog of Kapβ2; gene a gift from J. Aitchison, subcloned into pGEX-Tev; also called yeast Karyopherin β2 homolog; source: E. coli Rosetta(DE3)pLysS, purified (glutathione sepharose, TEV cleavage, anion exchange, gel filtration)
T1 sequence (looked up): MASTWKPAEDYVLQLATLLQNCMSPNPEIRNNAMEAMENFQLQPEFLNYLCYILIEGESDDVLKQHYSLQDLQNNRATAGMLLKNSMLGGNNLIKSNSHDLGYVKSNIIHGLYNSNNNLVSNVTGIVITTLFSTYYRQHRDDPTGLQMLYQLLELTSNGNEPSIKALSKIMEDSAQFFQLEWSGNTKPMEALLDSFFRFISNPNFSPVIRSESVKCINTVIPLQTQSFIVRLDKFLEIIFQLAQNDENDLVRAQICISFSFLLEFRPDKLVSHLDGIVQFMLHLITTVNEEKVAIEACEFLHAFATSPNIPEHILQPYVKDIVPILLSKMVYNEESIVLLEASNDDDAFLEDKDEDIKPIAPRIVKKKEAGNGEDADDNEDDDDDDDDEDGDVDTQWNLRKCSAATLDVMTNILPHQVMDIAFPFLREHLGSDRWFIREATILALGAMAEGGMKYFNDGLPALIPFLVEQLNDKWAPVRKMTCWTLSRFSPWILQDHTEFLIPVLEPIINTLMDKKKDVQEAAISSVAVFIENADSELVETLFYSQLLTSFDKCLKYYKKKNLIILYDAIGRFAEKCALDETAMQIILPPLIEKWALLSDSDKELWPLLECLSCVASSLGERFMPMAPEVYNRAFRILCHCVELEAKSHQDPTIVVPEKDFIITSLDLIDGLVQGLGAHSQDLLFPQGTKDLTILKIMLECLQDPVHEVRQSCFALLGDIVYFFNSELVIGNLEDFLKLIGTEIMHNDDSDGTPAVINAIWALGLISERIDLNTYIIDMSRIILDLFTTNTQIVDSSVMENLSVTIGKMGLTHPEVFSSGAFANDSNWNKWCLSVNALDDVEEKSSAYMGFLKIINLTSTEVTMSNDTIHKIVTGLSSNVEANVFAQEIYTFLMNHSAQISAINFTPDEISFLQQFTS
Experiment: ITC; 90–350 μM MBP-NLS titrated into 9–35 μM Kap104p in the cell; 20 °C; 20 mM Tris pH 7.5, 100 mM NaCl, 2 mM β-mercaptoethanol, 10% glycerol; 35 injections of 8 μl; single-site model
Details: both partners purified

B1: MBP–Nab2p NLS L239H (domain or fragment, S. cerevisiae, UniProt P32505 201-251, looked up)
chain: DNSQRFTQRGGGAVGKNRRGGRGGNRGGRNNNSTRFNPHAKALGMAGESNM
notes: Nab2p NLS, residues 201-251; also called L239 to H; source: E. coli BL21(DE3), purified (amylose resin, cation exchange)
Question: Does B1 bind?
Answer: binds

B2: MBP–Nab2p NLS L239T (domain or fragment, S. cerevisiae, UniProt P32505 201-251, looked up)
chain: DNSQRFTQRGGGAVGKNRRGGRGGNRGGRNNNSTRFNPTAKALGMAGESNM
notes: Nab2p NLS, residues 201-251; also called L239 to T; source: E. coli BL21(DE3), purified (amylose resin, cation exchange)
Question: Does B2 bind?
Answer: binds

B3: MBP–Nab2p NLS R218A (domain or fragment, S. cerevisiae, UniProt P32505 201-251, looked up)
chain: DNSQRFTQRGGGAVGKNARGGRGGNRGGRNNNSTRFNPLAKALGMAGESNM
notes: Nab2p NLS, residues 201-251; source: E. coli BL21(DE3), purified (amylose resin, cation exchange)
Question: Which “KD,mutant/KD,wild type” value does the source give for B3 here?
Answer: ~1

B4: MBP–Nab2p NLS R235A, 238PL239/AA (domain or fragment, S. cerevisiae, UniProt P32505 201-251, looked up)
chain: DNSQRFTQRGGGAVGKNRRGGRGGNRGGRNNNSTAFNAAAKALGMAGESNM
notes: as for B3
Question: B4 was tested. Which Kd did it give?
Answer: 544 nM

B5: MBP–Nab2p NLS L239R (domain or fragment, S. cerevisiae, UniProt P32505 201-251, looked up)
chain: DNSQRFTQRGGGAVGKNRRGGRGGNRGGRNNNSTRFNPRAKALGMAGESNM
notes: Nab2p NLS, residues 201-251; also called L239 to R; source: E. coli BL21(DE3), purified (amylose resin, cation exchange)
Question: Does B5 bind?
Answer: binds

B6: MBP–Nab2p NLS L239G (domain or fragment, S. cerevisiae, UniProt P32505 201-251, looked up)
chain: DNSQRFTQRGGGAVGKNRRGGRGGNRGGRNNNSTRFNPGAKALGMAGESNM
notes: as for B3
Question: Does B6 bind?
Answer: binds

B7: MBP–Nab2p NLS R218, R219, R222, R226, R229/AAAAA (domain or fragment, S. cerevisiae, UniProt P32505 201-251, looked up)
chain: DNSQRFTQRGGGAVGKNAAGGAGGNAGGANNNSTRFNPLAKALGMAGESNM
notes: Nab2p NLS, residues 201-251; also called pentamutant; source: E. coli BL21(DE3), purified (amylose resin, cation exchange)
Question: B7 was tested. Which Kd did it give?
Answer: 2250 nM

B8: MBP–Nab2p NLS L239V (domain or fragment, S. cerevisiae, UniProt P32505 201-251, looked up)
chain: DNSQRFTQRGGGAVGKNRRGGRGGNRGGRNNNSTRFNPVAKALGMAGESNM
notes: Nab2p NLS, residues 201-251; also called L239 to V; source: E. coli BL21(DE3), purified (amylose resin, cation exchange)
Question: Does B8 bind?
Answer: binds

B9: MBP–Nab2p NLS L239K (domain or fragment, S. cerevisiae, UniProt P32505 201-251, looked up)
chain: DNSQRFTQRGGGAVGKNRRGGRGGNRGGRNNNSTRFNPKAKALGMAGESNM
notes: Nab2p NLS, residues 201-251; also called L239 to K; source: E. coli BL21(DE3), purified (amylose resin, cation exchange)
Question: Does B9 bind?
Answer: binds

B10: MBP–Nab2p NLS L239S (domain or fragment, S. cerevisiae, UniProt P32505 201-251, looked up)
chain: DNSQRFTQRGGGAVGKNRRGGRGGNRGGRNNNSTRFNPSAKALGMAGESNM
notes: Nab2p NLS, residues 201-251; also called L239 to S; source: E. coli BL21(DE3), purified (amylose resin, cation exchange)
Question: Does B10 bind?
Answer: binds

B11: MBP–Nab2p NLS F236L (domain or fragment, S. cerevisiae, UniProt P32505 201-251, looked up)
chain: DNSQRFTQRGGGAVGKNRRGGRGGNRGGRNNNSTRLNPLAKALGMAGESNM
notes: as for B3
Question: Does B11 bind?
Answer: binds

B12: MBP–Nab2p NLS 238PL239/AA (domain or fragment, S. cerevisiae, UniProt P32505 201-251, looked up)
chain: DNSQRFTQRGGGAVGKNRRGGRGGNRGGRNNNSTRFNAAAKALGMAGESNM
notes: as for B3
Question: How did the Kd turn out when B12 was run?
Answer: 376 nM

B13: MBP–Nab2p NLS R235A (domain or fragment, S. cerevisiae, UniProt P32505 201-251, looked up)
chain: DNSQRFTQRGGGAVGKNRRGGRGGNRGGRNNNSTAFNPLAKALGMAGESNM
notes: as for B3
Question: Which “KD,mutant/KD,wild type” value does the source give for B13 here?
Answer: 5.5

B14: MBP–Nab2p NLS R235H (domain or fragment, S. cerevisiae, UniProt P32505 201-251, looked up)
chain: DNSQRFTQRGGGAVGKNRRGGRGGNRGGRNNNSTHFNPLAKALGMAGESNM
notes: Nab2p NLS, residues 201-251; also called R235 to histidine; source: E. coli BL21(DE3), purified (amylose resin, cation exchange)
Question: B14 was tested. Which “KD,mutant/KD,wild type” value did it give?
Answer: 1.7

B15: MBP–Nab2p NLS L239M (domain or fragment, S. cerevisiae, UniProt P32505 201-251, looked up)
chain: DNSQRFTQRGGGAVGKNRRGGRGGNRGGRNNNSTRFNPMAKALGMAGESNM
notes: Nab2p NLS, residues 201-251; also called L239 to M; source: E. coli BL21(DE3), purified (amylose resin, cation exchange)
Question: Does B15 bind?
Answer: binds

B16: MBP–Nab2p NLS R222A (domain or fragment, S. cerevisiae, UniProt P32505 201-251, looked up)
chain: DNSQRFTQRGGGAVGKNRRGGAGGNRGGRNNNSTRFNPLAKALGMAGESNM
notes: as for B3
Question: B16 was tested. Which “KD,mutant/KD,wild type” value did it give?
Answer: ~1

B17: MBP–Nab2p NLS L239W (domain or fragment, S. cerevisiae, UniProt P32505 201-251, looked up)
chain: DNSQRFTQRGGGAVGKNRRGGRGGNRGGRNNNSTRFNPWAKALGMAGESNM
notes: Nab2p NLS, residues 201-251; also called L239 to W; source: E. coli BL21(DE3), purified (amylose resin, cation exchange)
Question: Does B17 bind?
Answer: binds

B18: MBP–Nab2p NLS L239N (domain or fragment, S. cerevisiae, UniProt P32505 201-251, looked up)
chain: DNSQRFTQRGGGAVGKNRRGGRGGNRGGRNNNSTRFNPNAKALGMAGESNM
notes: Nab2p NLS, residues 201-251; also called L239 to N; source: E. coli BL21(DE3), purified (amylose resin, cation exchange)
Question: Does B18 bind?
Answer: binds

B19: MBP–Nab2p NLS L239I (domain or fragment, S. cerevisiae, UniProt P32505 201-251, looked up)
chain: DNSQRFTQRGGGAVGKNRRGGRGGNRGGRNNNSTRFNPIAKALGMAGESNM
notes: as for B3
Question: Does B19 bind?
Answer: binds

B20: MBP–Nab2p NLS R222A, 238PL239/AA (domain or fragment, S. cerevisiae, UniProt P32505 201-251, looked up)
chain: DNSQRFTQRGGGAVGKNRRGGAGGNRGGRNNNSTRFNAAAKALGMAGESNM
notes: as for B3
Question: B20 was tested. Which Kd did it give?
Answer: 411 nM
